Source: paper PMC3738515, “HLA-DO as the Optimizer of Epitope Selection for MHC Class II Antigen Presentation” (PLoS ONE, 2013)
Where two headings read alike, the source gives them in different places. No end group written: not given here.

What was measured:
[1] = biological target: recombinant soluble HLA-DO (human) (UniProt P06340); assay: SPR; DO (Ni-NTA purified) captured on anti-His antibody CM5 chip; analyte 4 µM; citrate-phosphate pH 5.5, 150 mM NaCl, 0.005% Tween-20; 27°C, 5–10 µL/min
[2] = biological target: T1, HLA-DR1 (DR1) (Homo sapiens, UniProt P01903+P01911, A100R/D57E/F55L/F60I/F76Y/I96L/L162R/M171V/P40L/Q125E/R42F/V115G/Y59C); assay: Fluorescent peptide association to soluble DR1 (spin-column separation, fluorescence read-out); assay type: binding
[3] = biological target: T1, HLA-DR1 (DR1); assay: Dissociation of fluorescent peptide/DR1 complexes; assay type: binding; conditions: for DM sensitivity of DR1/peptide complex (dissociation in the presence of DM): 10 hours
[4] = tested on: HLA-DO (DO); assay: SPR binding to DO captured on anti-His antibody surface; design: species or system human; conditions: soluble DM 4 µM injected over DO captured by anti-His antibody; pH 5.5, 27°C
[5] = biological target: co-expressed DM/DO complex (human) (UniProt P06340); assay: SPR
[6] = biological target: soluble HLA-DR1 (human)
[7] = tested on: Mags.DO5 monoclonal antibody; assay: SPR binding to immobilized Mags.DO5 antibody surface
Protocol: Purified DM/DO complexes were further evaluated by binding to anti-HA and anti-His antibody immobilized chip surfaces using BIAcore Surface Plasmon Resonance (SPR) instrument (Fig. 1C and D). […] To ensure that the observed binding was due to binding of DM/DO to Mags.DO5 mAb, we preincubated DM/DO complexes with soluble Mags.DO5 prior to injecting it over Mags.DO5 immobilized surface.

[8] = biological target: soluble HLA-DR1 (human); assay: fluorescent peptide association kinetics (Sephadex G-50 spin column, fluorescence); DR1 or DR1βG86Y 1 µM with fluorescent peptide 30 µM, no accessory molecules; 37°C, citrate-phosphate buffer pH 5.0; up to 10 h; unbound peptide removed on G-50 spin columns
[9] = biological target: soluble HLA-DR1 (human); assay: fluorescent peptide association kinetics (Sephadex G-50 spin column, fluorescence); as a1 with 1 µM DM added
[10] = biological target: soluble HLA-DR1 (human); assay: fluorescent peptide association kinetics (Sephadex G-50 spin column, fluorescence); as a1 with 1 µM DM and 4 µM DO added
[11] = biological target: soluble HLA-DR1 (human); assay: fluorescent peptide association kinetics (Sephadex G-50 spin column, fluorescence); as a1 with 4 µM DO added
[12] = tested on: HLA-DM (DM); conditions: DO solution 5 µM over DM captured by anti-FLAG antibody; pH 5.5, 27°C

Molecule: mutant DR1, DR1βG86Y (from UniProt P01903 26-216) (receptor)
- response at 4 µM [1]: 100 RU

Molecule: CAGFKGEQGPKGEP [CII(259–273), derived from Type II Collagen peptide used to induce arthritis in mice models]
- Observed initial binding rate, DR1 alone ([2]; DR1 1 µM, fluorescent peptide 30 µM, 37°C, Citrate-Phosphate buffer pH 5.0, slope of linear fit of early data points (~1 hour), no accessory molecules): 500 Arbitrary Fluorescence Units min^−1
- Observed initial binding rate, + DM and DO ([2]; DR1 1 µM, peptide 30 µM, DM 1 µM and DO 4 µM, 37°C, pH 5.0, initial rate over 1 hour): 1002 Arbitrary Fluorescence Units min^−1
- Observed initial binding rate, + DM ([2]; DR1 1 µM, peptide 30 µM, DM 1 µM, 37°C, pH 5.0, initial rate over 1 hour): 1593 Arbitrary Fluorescence Units min^−1
- Observed initial binding rate, + DO ([2]; DR1 1 µM, peptide 30 µM, DO 4 µM, 37°C, pH 5.0, initial rate over 1 hour): 137 Arbitrary Fluorescence Units min^−1
- Effect of DO on peptide binding to peptide-receptive DR1 (DR-receptive) ([2]; DR1 pre-incubated with unlabeled HA(anchorless) for three days, no DM): reduced
- Effect of DO (or DM+DO) on dissociation of peptide from DR1 ([3]; DO 4 µM, with or without DM 1 µM, 10 hour kinetic experiment, pH 5.0, 37°C): no effect
- DM sensitivity of DR1/peptide complex (dissociation in the presence of DM) ([3]; complexes formed over 3 days at 37°C, DM 1 µM, competing HA(306–318) 50 µM, pH 5.0, 37°C): DM-sensitivity

Molecule: DM: soluble HLA-DM purified on M2 FLAG affinity column
- SPR binding of DM to captured DO [4]: 490 RU

Molecule: soluble HLA-DR1 (from UniProt P01903 26-216) (receptor)
- SPR binding response [5]: 337 RU

Molecule: HA(306–318): derived from Texas 77 flu strain HA protein peptide; immunodominant HLA-DR1 binding peptide (CPKYVKQNTLKLAT)
- Effect of DO on peptide binding to peptide-receptive DR1 (DR-receptive) [2]: enhanced
- Enhancement of initial binding rate by DO compared to DR1 alone [2]: 3–4 folds
- Effect of DO on maximum binding of peptide to DR1 ([2]; pH 5): increasing the binding maxima
- Observed initial binding rate, + DM ([2]; pH 5): 463 Arbitrary Fluorescence Units min^−1
- Observed initial binding rate, + DM and DO ([2]; pH 5): 1779 Arbitrary Fluorescence Units min^−1
- Observed initial binding rate, + DO ([2]; pH 5): 523 Arbitrary Fluorescence Units min^−1
- Observed initial binding rate, DR1 alone ([2]; pH 5): 132 Arbitrary Fluorescence Units min^−1
- Effect of DO (or DM+DO) on dissociation of peptide from DR1 ([3]; pH 5): did not affect
- DM sensitivity of DR1/peptide complex (dissociation in the presence of DM) ([3]; pH 5.0, 37°C): DM-resistant

Molecule: HA(306–318) peptide
- observed initial binding rate (+ DM and DO) (Arbitrary Fluorescence Units min^-1) [6]: 1780
- observed initial binding rate (+ DM) (Arbitrary Fluorescence Units min^-1) [6]: 463
- observed initial binding rate (+ DO) (Arbitrary Fluorescence Units min^-1) [6]: 523

Molecule: H5N1-HA1(259–274) peptide
- observed initial binding rate (+ DM and DO) (Arbitrary Fluorescence Units min^-1) [6]: 2200
- observed initial binding rate (+ DM) (Arbitrary Fluorescence Units min^-1) [6]: 665
- observed initial binding rate (+ DO) (Arbitrary Fluorescence Units min^-1) [6]: 257

Molecule: DM/DO: co-expressed soluble DM/DO complex purified by Ni-NTA or Mags.DO5
- SPR binding to Mags.DO5 mAb immobilized surface after preincubation with soluble Mags.DO5 ([7]; DM/DO preincubated with soluble Mags.DO5 prior to injection): about 100 RU
- SPR binding to Mags.DO5 mAb immobilized surface ([7]; Ni-NTA purified DM/DO complexes, pH 5.5 running buffer, 27°C): approximately 600 RU

B1: CII(259–273) peptide (peptide)
peptide: fluorescein-CAGFKGEQGPKGEP
- observed initial binding rate (Arbitrary Fluorescence Units min^-1) [8]: 500
- observed initial binding rate (+ DM) (Arbitrary Fluorescence Units min^-1) [9]: 1590
- observed initial binding rate (+ DM and DO) (Arbitrary Fluorescence Units min^-1) [10]: 1000
- observed initial binding rate (+ DO) (Arbitrary Fluorescence Units min^-1) [11]: 137

B2: DO: recombinant soluble HLA-DO heterodimer with leucine zipper, His- and HA-tags, expressed in Hi5 insect cells (protein)
chain 1: TKADHMGSYGPAFYQSYGASGQFTHEFDEEQLFSVDLKKSEAVWRLPEFGDFARFDPQGGLAGIAAIKAHLDILVERSNRSRAINVPPRVTVLPKSRVELGQPNILICIVDNIFPPVINITWLRNGQTVTEGVAQTSFYSQPDHLFRKFHYLPFVPSAEDVYDCQVEHWGLDAPLLRHWELQVPIPPPDAME
chain 2: TDSPEDFVIQAKADCYFTNGTEKVQFVVRFIFNLEEYVRFDSDVGMFVALTKLGQPDAEQWNSRLDLLERSRQAVDGVCRHNYRLGAPFTVGRKVQPEVTVYPERTPLLHQHNLLHCSVTGFYPGDIKIKWFLNGQEERAGVMSTGPIRNGDWTFQTVVMLEMTPELGHVYTCLVDHSSLLSPVSVEWRAQSEYSWRK
modifications: left off: leucine zipper (acidic or basic chain, which not stated; flanked by spacers), C-terminal, state not stated | His tag, C-terminal, kept | leucine zipper (acidic or basic chain, which not stat
- SPR maximum binding of DO to immobilized DM [12]: 500 RU
